From US20240383984A1 (Genentech, published 2024)
Residue numbers refer to the chain shown, from its start. Names may count otherwise. Each block holds one binder with its values, some of them ahead of it.

Tests used:
[1] = target: T1, human CD3ε (human, UniProt P07766 23-126, limits assumed); test: ELISA on CD3
T1 construct: also called hCD3ε

[2] = target: T2, human FcRH5 protein fragment (soluble) (human, UniProt Q96RD9 16-851); test: ELISA on FcRH5 (form of the coated FcRH5 not given)
T2 construct: whole entry named; also called soluble human FcRH5; Human FcRH5 (BIACORE analyte)
T2 sequence: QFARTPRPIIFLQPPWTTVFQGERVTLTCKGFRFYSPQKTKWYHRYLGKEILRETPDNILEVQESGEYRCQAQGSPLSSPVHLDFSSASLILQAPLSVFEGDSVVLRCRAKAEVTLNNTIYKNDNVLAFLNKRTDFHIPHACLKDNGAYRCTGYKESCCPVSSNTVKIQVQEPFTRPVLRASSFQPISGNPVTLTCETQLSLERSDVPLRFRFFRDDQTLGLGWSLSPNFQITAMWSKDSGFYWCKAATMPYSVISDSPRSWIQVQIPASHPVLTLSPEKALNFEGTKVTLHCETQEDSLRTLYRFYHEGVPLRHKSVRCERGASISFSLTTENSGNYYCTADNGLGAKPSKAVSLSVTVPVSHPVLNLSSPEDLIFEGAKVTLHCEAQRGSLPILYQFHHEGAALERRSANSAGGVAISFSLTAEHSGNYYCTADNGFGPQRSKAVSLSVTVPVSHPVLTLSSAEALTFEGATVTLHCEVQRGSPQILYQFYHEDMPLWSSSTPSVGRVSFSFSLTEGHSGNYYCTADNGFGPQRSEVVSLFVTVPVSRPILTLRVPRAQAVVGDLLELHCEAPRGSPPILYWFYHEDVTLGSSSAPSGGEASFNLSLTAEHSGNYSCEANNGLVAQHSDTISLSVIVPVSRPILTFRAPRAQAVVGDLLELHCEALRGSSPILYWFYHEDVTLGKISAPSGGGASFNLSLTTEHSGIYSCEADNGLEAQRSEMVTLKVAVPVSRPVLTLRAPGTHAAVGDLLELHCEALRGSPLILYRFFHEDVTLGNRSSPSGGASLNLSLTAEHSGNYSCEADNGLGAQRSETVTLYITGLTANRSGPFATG

[3] = target: T2, human FcRH5 protein fragment (soluble); test: SPR, hIgG capture, 1:1 model
Description: (§1) Briefly, a human IgG capture surface was generated on a Series S CM5 chip using amine coupling and the human IgG capture kit (GE Life Sciences, Piscataway, NJ). Test antibodies were then captured on flow cells 2, 3, or 4, with flow cell 1 used as a reference. An FcRH5 protein fragment was used as the analyte, with a flow rate of […]. Between injections the capture surface was regenerated by a 30-second injection of 3M magnesium chloride or 10 mM glycine, pH 1.5. Interactions were assessed at 25° C. in 10 mM HEPES pH7.4, 150 mM NaCl, and 0.05% Tween 20 (HBSP). Reference data from the reference flow cell and from injection of buffer alone were subtracted prior to kinetic analysis. Kinetic information was calculated by fitting data to a 1:1 binding model. Reference subtraction and data fitting were performed using BIAevaluation software (GE Life Sciences, Piscataway, NJ).
(§2) Kinetic characterization experiments were carried out (see Table 8). In these experiments, binding of soluble FcRH5 protein fragment to purified antibodies in human TDB antibody format was analyzed at six different non-zero concentrations (a 1:3 dilution series, one concentration injected twice as a replicate). Flow rate was set at 40 μl/min and association and dissociation monitored for 600 s.

[4] = target: T3, cynomolgus FcRH5 protein fragment (soluble) (cynomolgus monkey); test: SPR, hIgG capture, 1:1 model
T3 construct: whole entry named; also called Cyno FcRH5 (BIACORE analyte)
T3 chain: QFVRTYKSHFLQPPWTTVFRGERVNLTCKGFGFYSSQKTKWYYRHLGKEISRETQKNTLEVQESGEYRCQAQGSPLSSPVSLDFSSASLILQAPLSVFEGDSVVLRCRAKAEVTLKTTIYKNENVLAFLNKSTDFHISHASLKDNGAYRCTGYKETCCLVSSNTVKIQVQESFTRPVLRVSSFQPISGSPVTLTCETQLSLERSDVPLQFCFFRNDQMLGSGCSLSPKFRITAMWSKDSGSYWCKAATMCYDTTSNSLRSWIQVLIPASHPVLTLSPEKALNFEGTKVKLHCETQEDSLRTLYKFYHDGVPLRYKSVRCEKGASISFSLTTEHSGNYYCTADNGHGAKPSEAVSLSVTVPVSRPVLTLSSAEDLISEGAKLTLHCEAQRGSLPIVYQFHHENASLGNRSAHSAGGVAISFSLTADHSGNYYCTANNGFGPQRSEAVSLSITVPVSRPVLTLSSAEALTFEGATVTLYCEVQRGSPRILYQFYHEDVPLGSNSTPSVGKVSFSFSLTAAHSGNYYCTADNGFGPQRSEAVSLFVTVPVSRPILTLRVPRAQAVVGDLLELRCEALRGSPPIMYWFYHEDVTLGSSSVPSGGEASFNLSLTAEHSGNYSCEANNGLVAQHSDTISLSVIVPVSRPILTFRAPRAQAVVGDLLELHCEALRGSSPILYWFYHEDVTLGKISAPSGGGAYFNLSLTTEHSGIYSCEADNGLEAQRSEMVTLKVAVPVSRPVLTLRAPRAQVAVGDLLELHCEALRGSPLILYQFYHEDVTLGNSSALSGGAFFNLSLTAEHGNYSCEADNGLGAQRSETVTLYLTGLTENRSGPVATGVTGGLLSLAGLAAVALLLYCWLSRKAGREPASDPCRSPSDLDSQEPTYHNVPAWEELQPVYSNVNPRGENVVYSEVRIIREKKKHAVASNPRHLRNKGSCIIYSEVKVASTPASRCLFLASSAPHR
Description: as §1, §2

[5] = target: T2, human FcRH5 protein fragment (soluble); test: SPR, hIgG capture, screening
Description: as §1
(§3) For affinity screening of HVR-H2 Trp52 and Met64 variants (Table 7), antibodies were expressed by transient transfection of Expi293 cells and purified using tip columns that were custom packed with affinity resin MabSelect SuRe (Glygen Corp., Columbia, MD & GE Life Sciences, Piscataway, NJ). […] Binding of FcRH5 protein fragment to captured antibodies was monitored at 100 nM and 500 nM. Association and dissociation were monitored at a flow rate of 40 μl/min, for 180 s and 300 s, respectively.

[6] = target: T2, human FcRH5 protein fragment (soluble); test: BIACORE, human IgG1, soluble human FcRH5
[7] = target: T2, human FcRH5 protein fragment (soluble); test: SPR (BIACORE), IgG captured via anti-human IgG, FcRH5 protein fragment as analyte (100 and 500 nM)
Description: as §1, §3

[8] = target: T4, human FcRH1 (full-length, on SVT2 cells) (human, UniProt Q96LA6 17-429); test: FACS, SVT2 cells
T4 construct: whole, on cells; also called SVT2-FcRH1
T4 sequence (looked up): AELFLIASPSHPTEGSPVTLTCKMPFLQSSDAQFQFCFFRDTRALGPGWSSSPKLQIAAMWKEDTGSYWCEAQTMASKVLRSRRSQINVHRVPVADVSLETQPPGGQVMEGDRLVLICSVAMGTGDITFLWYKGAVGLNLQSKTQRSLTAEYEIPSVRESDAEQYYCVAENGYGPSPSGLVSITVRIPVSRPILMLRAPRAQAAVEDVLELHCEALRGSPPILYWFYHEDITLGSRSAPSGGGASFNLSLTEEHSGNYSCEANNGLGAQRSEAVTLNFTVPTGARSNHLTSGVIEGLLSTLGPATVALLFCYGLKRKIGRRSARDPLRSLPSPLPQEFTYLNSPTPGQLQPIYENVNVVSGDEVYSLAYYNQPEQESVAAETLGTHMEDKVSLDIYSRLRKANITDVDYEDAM
Description: (§4) Human FcRH5, cyno FcRH5, human FcRH1, FcRH2, FcRH3, and FcRH4 transfected mouse SVT2 cells were used to test binding and cross-reactivity of FcRH5 TDBs. The method was carried out as follows. Cultured SVT2 cells were lifted using non-enzyme cell dissociation buffer (Sigma, #C5914). 1×10⁵ cells were suspended in 100 μL and incubated with FcRH5 TDBs at 3 μg/ml. […] Cells were washed twice with FACS buffer before flow cytometry analysis was carried out on a FACSCalibur.

[9] = target: T5, human FcRH4 (full-length, on SVT2 cells) (human, UniProt Q96PJ5 20-515); test: FACS, SVT2 cells
T5 construct: whole, on cells; also called SVT2-FcRH4
T5 sequence (looked up): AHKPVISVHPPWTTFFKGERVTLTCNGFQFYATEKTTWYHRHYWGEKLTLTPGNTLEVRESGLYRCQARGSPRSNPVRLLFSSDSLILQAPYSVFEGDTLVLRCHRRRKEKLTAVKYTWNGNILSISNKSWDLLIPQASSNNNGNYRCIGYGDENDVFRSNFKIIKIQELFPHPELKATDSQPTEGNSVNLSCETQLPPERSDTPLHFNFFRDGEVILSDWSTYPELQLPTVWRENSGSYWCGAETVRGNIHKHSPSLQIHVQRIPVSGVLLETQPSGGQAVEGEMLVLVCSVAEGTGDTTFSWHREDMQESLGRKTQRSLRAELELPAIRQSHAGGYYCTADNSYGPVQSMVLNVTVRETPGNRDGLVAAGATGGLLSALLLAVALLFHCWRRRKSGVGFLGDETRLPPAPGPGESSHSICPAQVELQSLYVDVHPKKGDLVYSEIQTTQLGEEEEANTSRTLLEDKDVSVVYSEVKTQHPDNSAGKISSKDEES
Description: as §4

[10] = target: T2, human FcRH5 protein fragment (soluble); test: BIACORE, TDB format
[11] = target: T1, human CD3ε; test: assay not stated

T1 sequence (P07766 23-126 limits assumed): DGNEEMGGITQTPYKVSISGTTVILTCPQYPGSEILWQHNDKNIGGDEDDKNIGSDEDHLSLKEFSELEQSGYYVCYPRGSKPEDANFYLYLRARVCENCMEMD

EC50 (read off the curve) [1]: ~7 ng/mL
EC50 (read off the curve) [2]: ~10 ng/mL
B1: bis-Fab B (bispecific antibody, V domains shown)
VH 1: EVQLVESGPGLVKPSETLSLTCTVSGFSLTRFGVHWVRQPPGKGLEWLGVIWRGGSTDYNAAFVSRLTISKDNSKNQVSLKLSSVTAADTAVYYCSNHYYGSSDYALDNWGQGTLVTVSS
VL 1: DIQMTQSPSSLSASVGDRVTITCKASQDVRNLVVWFQQKPGKAPKLLIYSGSYRYSGVPSRFSGSGSGTDFTLTISSLQPEDFATYYCQQHYSPPYTFGQGTKVEIK
VH 2: EVQLVQSGAEVKKPGASVKVSCKASGFTFTSYYIHWVRQAPGQGLEWIGWIYPENDNTKYNEKFKDRVTITADTSTSTAYLELSSLRSEDTAVYYCARDGYSRYYFDYWGQGTLVTVSS
VL 2: DIVMTQSPDSLAVSLGERATICCKSSQSLLNSRTRKNYLAWYQQKPGQSPKLLIYWTSTRKSGVPDRFSGSGSGTDFTLTISSLQAEDVAVYYCKQSFILRTFGQGTKVEIK
notes: bis-Fab: 1G7.v85 Fab (HC A114C, constant part) crosslinked to 38E4.v1 Fab (LC N22C)

Kd [3]: 2.6 nM
koff [3]: 0.002 s⁻¹
kon [3]: 700000 M⁻¹ s⁻¹
Kd [4]: 7.7 nM
koff [4]: 0.001 s⁻¹
kon [4]: 100000 M⁻¹ s⁻¹
B2: hu1G7.v1.4 (hIgG1) (antibody, V domains shown)
VH: B1 VH 1 with V64M
VL: B1 VL 1
notes: hIgG1

Kd [5]: 2.5 nM
Kd [3]: 2.5 nM
koff [3]: 0.002 s⁻¹
kon [3]: 600000 M⁻¹ s⁻¹
Kd [4]: 7.2 nM
koff [4]: 0.001 s⁻¹
kon [4]: 100000 M⁻¹ s⁻¹
Fold improvement over hu1G7.v1 [6]: 17 fold
Kd [6]: 0.8 nM
Kd [7]: 2.5 nM
B3: hu1G7.v85 (hIgG1) (antibody, V domains shown)
VH: B1 VH 1
VL: B1 VL 1
notes: bivalent hIgG1; also called hu1G7.v1.4.M64V

binding result [8]: no binding (tested: 3 µg/ml)
binding result [9]: no binding (tested: 3 µg/ml)
Kd [10]: 1.1 nM
B4: hu1G7.v1.5/38E4.v1 TDB (bispecific antibody, V domains shown)
VH 1: B1 VH 1 with V64M
VL 1: B1 VL 1 with R30S, L32I, A43S, S52Y, S56T, H91Q, Y92F, S93Q
VH 2: B1 VH 2
VL 2: B1 VL 2 with C22N
notes: knob-into-hole TDB; also called 1G7.v1.5 TDB

EC50 [11]: 0.05 nM
B5: 38E4.v11 (antibody, V domains shown)
VH: B1 VH 2
VL: B1 VL 2 with C22N, K95T
notes: humanized anti-CD3ε

binding result [8]: no binding (tested: 3 µg/ml)
binding result [9]: no binding (tested: 3 µg/ml)
Kd [10]: 0.6 nM
B6: hu1G7.v1.7/38E4.v1 TDB (bispecific antibody, V domains shown)
VH 1: B1 VH 1 with L29T, V64M
VL 1: B1 VL 1 with S52Y, S56T, S93Q
VH 2: B1 VH 2
VL 2: B1 VL 2 with C22N
notes: knob-into-hole TDB; also called 1G7.v1.7 TDB

EC50 (read off the curve) [1]: ~0.7 ng/mL
EC50 (read off the curve) [2]: ~50 ng/mL
B7: F(ab′)2 A (bispecific antibody, V domains shown)
VH 1: B1 VH 1
VL 1: B1 VL 1
VH 2: B1 VH 2
VL 2: B1 VL 2 with C22N

EC50 (read off the curve) [1]: ~7 ng/mL
EC50 (read off the curve) [2]: ~10 ng/mL
B8: bis-Fab D (bispecific antibody, V domains shown)
VH 1: B1 VH 1
VL 1: B1 VL 1
VH 2: B1 VH 2
VL 2: B1 VL 2
notes: bis-Fab: 1G7.v85 Fab (LC A149C, constant part) crosslinked to 38E4.v1 Fab (LC N22C)
